Source: US20240092922A1 (EUCURE BEIJING BIOPHARMA, published 2024)

Tests used:
[1] = target: T1, Histidine-tagged human 4-1BB protein (h4-1BB-His) (human, UniProt Q07011 24-186); experiment: SPR (Biacore T200), antibody on Protein A chip, h4-1BB-His injected;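 note: dissociation phase followed for 300 s, Kd derived as koff divided by kon from the kinetic fit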
T1 construct: not shown: histidine tag

[2] = target: T2, chimeric (mouse and human) 4-1BB (c4-1BB) on transfected CHO cells (chimeric (mouse and human)); experiment: flow cytometry on transfected CHO cells;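 note: antibodies tested at 1 µg/ml on CHO cells for 30 min at 4 °C, binding detected with FITC- or PE-labeled anti-mouse IgG Fc secondary by flow cytometry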
T2 construct: also called chi4-1BB; CHO-c4-1BB
Procedure: (§1) 25 μl CHO cells were added to each well. 25 μl purified anti-h4-1BB antibodies (1 μg/ml) were added to each well and were incubated at 4° C. for 30 minutes.
(§2) After being washed with PBS (1200 rmp, 5 min) twice, 50 μl of FITC labeled anti-mouse IgG Fc antibody (anti-mIgG Fc-FITC) was added into each well at 1:100 dilution, followed by incubating at 4° C. for 30 minutes, and then PBS wash (1200 rmp, 5 min). In some cases, PE labeled anti-mouse IgG Fc antibody (anti-mIgG Fc-PE) was used to label the antibody instead, and was added into each tested well at 1:500 dilution. The signals for FITC and PE were determined by flow cytometry.

[3] = target: T3, human 4-1BB (h4-1BB) on transiently transfected CHO cells (human, UniProt Q07011 24-255); experiment: flow cytometry, CHO cells transfected with human 4-1BB, antibody at 0.1 µg/ml
T3 construct: also called TNFRSF9; CD137
Procedure: (§3) 25 μl CHO cells transiently transfected with human 4-1BB were added to each well in a plate. The purified antibodies were titrated to final concentrations of 10, 1, 0.1, 0.01, 0.001 μg/ml. The titrated antibodies were added to each well at 4° C. and incubated for 30 minutes.
(§4) After being washed with phosphate-buffered saline (PBS) (1200 rpm, 5 minutes) twice, 50 μl of FITC labeled anti-mouse IgG Fc antibody (anti-mIgG Fc-FITC) at 1:100 dilution was added into each well, and incubated for 30 minutes at 4° C., followed by PBS wash (1200 rpm, 5 minutes). The signal for FITC was detected by flow cytometry.

[4] = target: T3, human 4-1BB (h4-1BB) on transiently …; experiment: flow cytometry, CHO cells transfected with human 4-1BB, antibody at 10 µg/ml
Procedure: as §3, §4

[5] = target: T3, human 4-1BB (h4-1BB) on transiently …; experiment: flow cytometry, CHO cells transfected with human 4-1BB, antibody at 0.01 µg/ml
Procedure: as §3, §4

[6] = target: T4, mouse 4-1BB (m4-1BB) on transfected CHO cells (mouse, UniProt P20334 24-256); experiment: flow cytometry on CHO cells transfected with mouse 4-1BB
T4 construct: also called CHO-m4-1BB
Procedure: as §1, §2

[7] = target: T3, human 4-1BB (h4-1BB) on transiently …; experiment: flow cytometry, CHO cells transfected with human 4-1BB, antibody at 1 µg/ml
Procedure: as §3, §4

[8] = target: T3, human 4-1BB (h4-1BB) on transiently …; experiment: flow cytometry, CHO cells transfected with human 4-1BB, antibody at 0.001 µg/ml
Procedure: as §3, §4

Binder | Kd [1] [nM] | koff [1] [s⁻¹] | kon [1] [M⁻¹ s⁻¹] | also measured
6A5-H2K2-IgG2 (antibody, V domains shown, humanized) VH: QVQLVQSGAEVKKPGSSVKLSCKASGYTFSSYWINWVRQAPGQGLEWIGNIYPSDSYTNYNQKFKDRATLTVDKSTSTAYMELSSLRSEDTAVYYCTRTWEFYYDSVFDYWGQGTLVTVSS VL: DIQMTQSPSSLSASLGERVTITCKASQDINSYLSWYQQKPGKAPKTLIYRANRLVDGVPSRFSGSGSGQDFTLTISSLQPEDIATYYCLQYDELPPTFGGGTKVEIK | 0.28 | 0.000652 | 2.33e+06 | 
6A5-H1K1-IgG2 (antibody, V domains shown, humanized) VH: QVQLVQSGAEVKKPGSSVKLSCKASGYTFSSYWINWVRQAPGQGLEWMGNIYPSDSYTNYNQKFKDRVTLTVDKSTSTAYMELSSLRSEDTAVYYCTRTWEFYYDSVFDYWGQGTLVTVSS VL: DIQMTQSPSSLSASLGERVTITCKASQDINSYLSWYQQKPGKAPKLLIYRANRLVDGVPSRFSGSGSGQDFTLTISSLQPEDIATYYCLQYDELPPTFGGGTKVEIK | 1.17 |  |  | 
6A5-H3K1-IgG2 (antibody, V domains shown, humanized) VH: QVQLVQSGAEVKKPGSSVKLSCKASGYTFSSYWINWVKQAPGQGLEWIGNIYPSDSYTNYNQKFKDKATLTVDKSTSTAYMELSSLRSEDTAVYYCTRTWEFYYDSVFDYWGQGTTLTVSS VL: DIQMTQSPSSLSASLGERVTITCKASQDINSYLSWYQQKPGKAPKLLIYRANRLVDGVPSRFSGSGSGQDFTLTISSLQPEDIATYYCLQYDELPPTFGGGTKVEIK | 2.78 | 0.00181 | 650000 | 
6A5-H3K2-IgG2 (antibody, V domains shown, humanized) VH: QVQLVQSGAEVKKPGSSVKLSCKASGYTFSSYWINWVKQAPGQGLEWIGNIYPSDSYTNYNQKFKDKATLTVDKSTSTAYMELSSLRSEDTAVYYCTRTWEFYYDSVFDYWGQGTTLTVSS VL: DIQMTQSPSSLSASLGERVTITCKASQDINSYLSWYQQKPGKAPKTLIYRANRLVDGVPSRFSGSGSGQDFTLTISSLQPEDIATYYCLQYDELPPTFGGGTKVEIK | 0.402 | 0.000825 | 2.05e+06 | 
6A5-H2K1-IgG2 (antibody, V domains shown, humanized) VH: QVQLVQSGAEVKKPGSSVKLSCKASGYTFSSYWINWVRQAPGQGLEWIGNIYPSDSYTNYNQKFKDRATLTVDKSTSTAYMELSSLRSEDTAVYYCTRTWEFYYDSVFDYWGQGTLVTVSS VL: DIQMTQSPSSLSASLGERVTITCKASQDINSYLSWYQQKPGKAPKLLIYRANRLVDGVPSRFSGSGSGQDFTLTISSLQPEDIATYYCLQYDELPPTFGGGTKVEIK | 2.32 | 0.00155 | 668000 | 
56-2A6 (antibody, V domains shown, mouse antibody purified from ascites) VH: QIQLVQSGPELKKPGETVKISCKASGYTFTNYGMNWVKQAPGKGFKWMGWINTYTGEPTYADDFKGRFAFSLEISASTAYLQINNLKNEDTATYFCARRDYLGAMDYWGQGTSVTVSS VL: ENVLTQSPAIMSASPGEKVTMTCRASSSVSSSYLHWYQQKSGASPKLWIYSTSNLASGVPARFSGSGSGTSYSLTISSVEAEDAATYYCQQYSAYLYTFGGGTKLEIK |  |  |  | binding result [2]: binds; percentage of cells with FITC signal [3]: 17.1%; percentage of cells with FITC signal [4]: 46.6%; percentage of cells with FITC signal [5]: 0.89%; binding result [6]: no binding (tested: 1 µg/ml); percentage of cells with FITC signal [7]: 40.9%; percentage of cells with FITC signal [8]: 0.25%
5F9-H3K1-IgG4 (antibody, V domains shown, humanized) VH: QVQLKESGPGLVKPSETLSITCTVSGFSLTTYDISWVRQPPGKGLEWLGVIWTGGGTNYNSSFMSRVTISKDNSKNQVSLKLSSVTAADTAIYYCERVDYWGQGTTLTVSS VL: DVVMTQSPLSLPVTLGQPASISCRSSQSLVHSNGNTYLHWFQQRPGQSPRLLIYKVSNRFSGVPDRFSGSGSGTAFTFKISRVEAEDVGVYYCSQNTHVPWTFGGGTKVEIK | 12.2 | 0.00242 | 198000 | 
5F9-H3K2-IgG4 (antibody, V domains shown, humanized) VH: QVQLKESGPGLVKPSETLSITCTVSGFSLTTYDISWVRQPPGKGLEWLGVIWTGGGTNYNSSFMSRVTISKDNSKNQVSLKLSSVTAADTAIYYCERVDYWGQGTTLTVSS VL: DVVMTQSPLSLPVTLGQPASISCRSSQSLVHSNGNTYLHWFQQRPGQSPKLLIYKVSNRFSGVPDRFSGSGSGTAFTFKISRVEAEDVGVYYCSQNTHVPWTFGGGTKVEIK | 13.7 | 0.00258 | 188000 | 
5F9-H3K4-IgG4 (antibody, V domains shown, humanized) VH: QVQLKESGPGLVKPSETLSITCTVSGFSLTTYDISWVRQPPGKGLEWLGVIWTGGGTNYNSSFMSRVTISKDNSKNQVSLKLSSVTAADTAIYYCERVDYWGQGTTLTVSS VL: DVVMTQSPLSLPVTLGDPASISCRSSQSLVHSNGNTYLHWYLQRPGQSPKLLIYKVSNRFSGVPDRFSGSGSGTAFTFKISRVEAEDVGVYYCSQNTHVPWTFGGGTKLEIK | 11.4 | 0.0027 | 236000 | 
5F9-H3K3-IgG4 (antibody, V domains shown, humanized) VH: QVQLKESGPGLVKPSETLSITCTVSGFSLTTYDISWVRQPPGKGLEWLGVIWTGGGTNYNSSFMSRVTISKDNSKNQVSLKLSSVTAADTAIYYCERVDYWGQGTTLTVSS VL: DVVMTQSPLSLPVTLGQPASISCRSSQSLVHSNGNTYLHWYQQRPGQSPKLLIYKVSNRFSGVPDRFSGSGSGTAFTFKISRVEAEDVGVYYCSQNTHVPWTFGGGTKLEIK | 10.5 | 0.0022 | 210000 | 

Continued, in another order:

Kd [1] [nM] | koff [1] [s⁻¹] | kon [1] [M⁻¹ s⁻¹] | Binder | also measured
0.221 | 0.000504 | 2.28e+06 | 6A5-H2K3-IgG2 (antibody, V domains shown, humanized) VH: QVQLVQSGAEVKKPGSSVKLSCKASGYTFSSYWINWVRQAPGQGLEWIGNIYPSDSYTNYNQKFKDRATLTVDKSTSTAYMELSSLRSEDTAVYYCTRTWEFYYDSVFDYWGQGTLVTVSS VL: DIQMTQSPSSLSASLGERVTITCKASQDINSYLSWFQQKPGKAPKTLIYRANRLVDGVPSRFSGSGSGQDFTLTISSLQPEDIATYYCLQYDELPPTFGGGTKVEIK | 
0.214 | 0.000475 | 2.22e+06 | 6A5-H1K3-IgG2 (antibody, V domains shown, humanized) VH: QVQLVQSGAEVKKPGSSVKLSCKASGYTFSSYWINWVRQAPGQGLEWMGNIYPSDSYTNYNQKFKDRVTLTVDKSTSTAYMELSSLRSEDTAVYYCTRTWEFYYDSVFDYWGQGTLVTVSS VL: DIQMTQSPSSLSASLGERVTITCKASQDINSYLSWFQQKPGKAPKTLIYRANRLVDGVPSRFSGSGSGQDFTLTISSLQPEDIATYYCLQYDELPPTFGGGTKVEIK | 
0.4 | 0.000747 | 1.87e+06 | 6A5-H3K4-IgG2 (antibody, V domains shown, humanized) VH: QVQLVQSGAEVKKPGSSVKLSCKASGYTFSSYWINWVKQAPGQGLEWIGNIYPSDSYTNYNQKFKDKATLTVDKSTSTAYMELSSLRSEDTAVYYCTRTWEFYYDSVFDYWGQGTTLTVSS VL: DIQMTQSPSSLSASLGERVTITCKASQDINSYLSWFQQKPGKAPKTLIYRANRLVDGVPSRFSGSGSGQDYTLTISSLQPEDIATYYCLQYDELPPTFGGGTKLEIK | 
0.252 | 0.000538 | 2.14e+06 | 6A5-H3K3-IgG2 (antibody, V domains shown, humanized) VH: QVQLVQSGAEVKKPGSSVKLSCKASGYTFSSYWINWVKQAPGQGLEWIGNIYPSDSYTNYNQKFKDKATLTVDKSTSTAYMELSSLRSEDTAVYYCTRTWEFYYDSVFDYWGQGTTLTVSS VL: DIQMTQSPSSLSASLGERVTITCKASQDINSYLSWFQQKPGKAPKTLIYRANRLVDGVPSRFSGSGSGQDFTLTISSLQPEDIATYYCLQYDELPPTFGGGTKVEIK | 
0.321 | 0.000693 | 2.16e+06 | 6A5-H1K4-IgG2 (antibody, V domains shown, humanized) VH: QVQLVQSGAEVKKPGSSVKLSCKASGYTFSSYWINWVRQAPGQGLEWMGNIYPSDSYTNYNQKFKDRVTLTVDKSTSTAYMELSSLRSEDTAVYYCTRTWEFYYDSVFDYWGQGTLVTVSS VL: DIQMTQSPSSLSASLGERVTITCKASQDINSYLSWFQQKPGKAPKTLIYRANRLVDGVPSRFSGSGSGQDYTLTISSLQPEDIATYYCLQYDELPPTFGGGTKLEIK | 
0.26 | 0.000581 | 2.24e+06 | 6A5-H2K4-IgG2 (antibody, V domains shown, humanized) VH: QVQLVQSGAEVKKPGSSVKLSCKASGYTFSSYWINWVRQAPGQGLEWIGNIYPSDSYTNYNQKFKDRATLTVDKSTSTAYMELSSLRSEDTAVYYCTRTWEFYYDSVFDYWGQGTLVTVSS VL: DIQMTQSPSSLSASLGERVTITCKASQDINSYLSWFQQKPGKAPKTLIYRANRLVDGVPSRFSGSGSGQDYTLTISSLQPEDIATYYCLQYDELPPTFGGGTKLEIK | 
0.278 | 0.000662 | 2.38e+06 | 6A5-H1K2-IgG2 (antibody, V domains shown, humanized) VH: QVQLVQSGAEVKKPGSSVKLSCKASGYTFSSYWINWVRQAPGQGLEWMGNIYPSDSYTNYNQKFKDRVTLTVDKSTSTAYMELSSLRSEDTAVYYCTRTWEFYYDSVFDYWGQGTLVTVSS VL: DIQMTQSPSSLSASLGERVTITCKASQDINSYLSWYQQKPGKAPKTLIYRANRLVDGVPSRFSGSGSGQDFTLTISSLQPEDIATYYCLQYDELPPTFGGGTKVEIK | 
